± gives the uncertainty stated by the source.
Assay: amyloid nucleation score (Sup35N fusion, yeast selection) (log enrichment); library NNK3; higher = more nucleation; inactive = no reads after selection
How it was run: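 Using DiMSum, nucleation scores were taken as the log enrichment of output over input reads, centred on the mode score of non-aggregating sequences. The input and output reads came from Illumina sequencing of plasmid inserts, with sequences under 100 input reads excluded. The yeast were psi-negative, expressed Sup35N fused to peptides of 20 random codons, were induced with 100 μM copper sulfate for 24 hours, and were grown 7 days at 30°C on medium lacking adenine and uracil.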

Substance	amyloid nucleation score
PLHRSE	inactive
KVLSYRETVPRLICLIHSRP	inactive
YMDPWYVIDHCLWRQMFLSE	-0.557 ± 1
VGGYI	inactive
AIGYLCSALAKVSLFGKWSV	inactive
WSTLFVIILPTKTLGYYCFW	inactive
LGSDTPLKCVLSTMRMLRTG	inactive
TIWSITFLGCKLELTEKCLV	0.979 ± 0.24
AALHKRTAAQNVPKELGLTM	0.227 ± 0.63
SVLWLN	inactive
WMRVPRMWEGKANFISG	inactive
HLSPVNSK	inactive
MACGGIKTIDTWNGDKFNVQ	inactive
RMFVSIRLLGTCCSDWSYYE	1.78 ± 0.085
GISSKRMFLSLSAFERSVYI	inactive
WELSRYVRGLLFEFTLCLFV	inactive
QKNFLGNF	inactive
TIFECRRASFNVSVEMGR	inactive
TENISVCGYYYRMIALDMFW	inactive
NLLPRCKLIDSWWSSHRLWV	-0.809 ± 1.1
NFVRGTGFVGRLESLNWKV	inactive
ILSRRLRLQLLFDFYNCLCG	inactive

Substance	amyloid nucleation score
LFCFSVN	inactive
GVFAIGANLQANVGNDRAYT	inactive
QVDISNLDCQSCRDKRVGLG	inactive
SVRVSIFRGLVRNRWKFDGF	0.666 ± 0.16
KVGFHHDTVLAGSNQRVLFF	-0.354 ± 0.88
LIFRRCLCNSSCYDLIAGRG	inactive
LWSSDVEFLYGCASSCDFMG	inactive
HVVKSRSGLIMVWRPLL	-0.65 ± 1.1
PGKKL	-0.453 ± 1.4
GIYRLGVNHGMFSCLM	inactive
GLSLNYCVLGYGLLTM	inactive
SMFYMRFHVQ	inactive
SSWLLLAGKIW	inactive
KKDQTMVES	inactive
GEDIL	inactive
VKFVCKAELLDLT	inactive
YGLSGDKFRWM	inactive
ISLVAAKLRTCF	inactive
RFIVANHLGGVYLQE	inactive
GNSIALSE	inactive
ENNRCYYKMF	inactive
TWELHV	-0.428 ± 1

Substance	amyloid nucleation score
IFLVVPGHDLWNCRRS	inactive
SLWYIRSLLCFEVLSLFHLL	inactive
LLSILTWVSIYRRCFSFTAR	-0.758 ± 0.88
LKYEERSGWWSLGSGVCGVV	inactive
HGCWKQPDQVVLLWSHRFFR	inactive
FMVSRMYEWCVCSVQCLMLF	inactive
CNYCALLTCLRGMPN	1.16 ± 0.12
AASNTAFNYLSTRPIMRWLA	inactive
VRMTAIFLNLKVWQSNMFVV	inactive
ALCGNHLKCYKYSGAWRAV	inactive
ALSHKVAVYVYC	inactive
YSMFN	inactive
NNIPCGMGPSSSSCNASD	inactive
EKKCIQRRFFYSVFNLMLSF	-0.714 ± 1
WYVFMCNGSWFLRNCRNLSY	0.144 ± 0.78
CPCFNLV	inactive
MCLSILE	inactive
LSGNCKYRTLWFIGPYSHFC	inactive
YMLWDDMVEKYHCLSQRLGR	inactive
FIWSAGGIITSHNCLYWQAS	inactive
GVADGGMPRNSSWRLSGVVR	inactive
WPYGIVTLRTWANYLGLFTL	-0.796 ± 1.1
